The source of these data is patent US20040146906A1.

The target of this experiment is PTH receptor 1 on ROS 17/2.8 rat osteoblast cells (rat) (UniProt P25961). Description: cell-based or functional assay.
Chain of UniProt P25961 (P25961 27-591): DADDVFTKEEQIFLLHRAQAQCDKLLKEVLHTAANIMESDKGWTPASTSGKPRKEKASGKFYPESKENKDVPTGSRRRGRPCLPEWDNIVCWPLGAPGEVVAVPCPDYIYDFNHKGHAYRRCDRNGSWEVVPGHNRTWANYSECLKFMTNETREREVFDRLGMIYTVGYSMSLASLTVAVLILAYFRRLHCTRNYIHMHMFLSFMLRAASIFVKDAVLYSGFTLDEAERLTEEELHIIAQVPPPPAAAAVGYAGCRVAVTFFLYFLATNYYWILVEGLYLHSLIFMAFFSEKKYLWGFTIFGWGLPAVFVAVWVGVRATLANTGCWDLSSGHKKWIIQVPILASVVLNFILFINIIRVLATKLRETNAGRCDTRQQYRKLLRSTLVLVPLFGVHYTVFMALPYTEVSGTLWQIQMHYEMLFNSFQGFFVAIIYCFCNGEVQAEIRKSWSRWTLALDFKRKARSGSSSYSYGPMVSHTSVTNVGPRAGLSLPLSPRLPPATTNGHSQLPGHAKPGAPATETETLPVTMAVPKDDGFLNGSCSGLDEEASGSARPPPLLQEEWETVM

The substance “human PTH (1-34) (from UniProt P01270 32-65) (peptide)” yielded a PAIGB expression (fold induction) of 6 fold.
